Conditions in all cases: glycan lost; control: wild type
A short description of data set [1]: CD spectroscopy, secondary structure content.
Data set [2] can be described thus: secreted protein yield, P. pastoris X-33.
Data set [3] can be described thus: DSLNT formation, TLC and HPLC.
A short description of data set [4]: NanoDSF, onset and Tm, Tris and HEPES.
The nature of data set [5]: NanoDSF, midpoint melting temperature.
The nature of data set [6]: NanoDSF, onset of melting, Tris buffer.

B1: ST6GalNAc6 (Δ70ST6GalNAc6): N98Q/N149Q (protein)
parent chain: MACSRPPSQCEPTSLPPGPPAGRRHLPLSRRRREMSSNKEQRSAVFVILFALITILILYSSNSANEVFHYGSLRGRSRRPVNLKKWSITDGYVPILGNKTLPSRCHQCVIVSSSSHLLGTKLGPEIERAECTIRMNDAPTTGYSADVGNKTTYRVVAHSSVFRVLRRPQEFVNRTPETVFIFWGPPSKMQKPQGSLVRVIQRAGLVFPNMEAYAVSPGRMRQFDDLFRGETGKDREKSHSWLSTGWFTMVIAVELCDHVHVYGMVPPNYCSQRPRLQRMPYHYYEPKGPDECVTYIQNEHSRKGNHHRFITEKRVFSSWAQLYGITFSHPSWT
In the case of B1, the structure_or_conformation entry in data set [1] was “changes”. The “expression_or_secretion, fold_change” value in data set [2] is recorded as “decreases”. For the same protein, in data set [3], the enzymatic_activity result is on record as “abolishes”. In addition, in data set [4], the “stability_or_folding, Tm” value was “decreases, reduced by 7.3 (Tris), 10 (HEPES) vs 56.8”.

B2: ST6GalNAc5 (Δ71ST6GalNAc5): N137Q/N161Q (protein)
parent chain: MKTLMRHGLAVCLALTTMCTSLLLVYSSLGGQKERPPQQQQQQQQQQQQASATGSSQPAAESSTQQRPGVPAGPRPLDGYLGVADHKPLKMHCRDCALVTSSGHLLHSRQGSQIDQTECVIRMNDAPTRGYGRDVGNRTSLRVIAHSSIQRILRNRHDLLNVSQGTVFIFWGPSSYMRRDGKGQVYNNLHLLSQVLPRLKAFMITRHKMLQFDELFKQETGKDRKISNTWLSTGWFTMTIALELCDRINVYGMVPPDFCRDPNHPSVPYHYYEPFGPDECTMYLSHERGRKGSHHRFITEKRVFKNWARTFNIHFFQPDWKPESLAINHPENKPVF
Consider B2, for which, in data set [1], the structure_or_conformation entry is “changes”. In addition, the “expression_or_secretion, fold_change” value in data set [2] was “decreases”. For the same protein, the “enzymatic_activity, other: DSLNT produced” value in data set [3] was “decreases, 0.189 ± 0.005 (4.5 µM enzyme) vs 0.202 ± 0.036 (1.0 µM enzyme)”. The “stability_or_folding, Tm” value in data set [5] is given as “no change”. Further, the “stability_or_folding, other: onset-of-melting temperature” value in data set [6] was “decreases”.

The values above are taken from paper PMC12521282.
